For experiment [1], the target named is T1, biotinylated human CD40 (Acrobiosystems) (human, UniProt P25942 21-193, biotinylated (site not stated)).
T1 construct: also called huCD40
Briefly: simultaneous binding ELISA (FIG. 4A-D). How it is done: (§1) All sequential steps were performed at room temperature. After being washed, the plates were blocked for 1 hr with 1×PBS with 2% Bovine serum Albumin and were subsequently incubated for 1 hr with serially diluted IgGs (1:5 consecutive dilutions in 1×PBS with 2% Bovine serum Albumin). For dual binding ELISA assay, plates were incubated for 1 hr with biotinylated human CD40 (Acrobiosystems). After washing, plates were incubated for 1 hr with horseradish peroxidase-conjugated anti-human IgG (Jackson ImmunoResearch) or with horseradish peroxidase-conjugated Streptavidin (Biolegend). Detection was performed using a one component substrate solution (TMB) and reactions stopped with the addition of 0.18 M sulphuric acid. Absorbance at 450 nm was immediately recorded using a SpectraMax Plus spectrophotometer (Molecular Devices), and background absorbance from negative control samples was subtracted.
(In general: An ELISA detects its analyte on a solid surface through an enzyme-linked reagent.)

For experiment [2], the target named is T2, recombinant human DEC-205 (Sino Biological), extracellular domain (human, UniProt O60449 28-1666).
T2 construct: extracellular domain; Bought protein
Briefly: simultaneous binding ELISA (FIG. 4A-D). How it is done:
as §1

In experiment [3] the target is T3, recombinant human CD40 (Sino Biological), extracellular domain (human, UniProt P25942 21-193).
T3 construct: also called huCD40; hCD40
The experiment can be described thus: ELISA titration on coated recombinant huCD40 (FIG. 4A). How it is done: as §1

Experiment [4] deals with T4, recombinant hFcγRIIB (human, UniProt P31994 43-217, limits assumed).
T4 construct: construct not described; also called human FcγRIIB
T4 sequence (looked up): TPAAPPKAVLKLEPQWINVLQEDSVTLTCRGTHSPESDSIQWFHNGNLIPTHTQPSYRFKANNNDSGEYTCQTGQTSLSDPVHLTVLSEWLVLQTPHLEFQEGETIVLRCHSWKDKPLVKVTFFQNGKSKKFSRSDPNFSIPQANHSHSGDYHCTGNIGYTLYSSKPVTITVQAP
Briefly: ELISA on recombinant hFcγRIIB (FIG. 9B).

Experiment [5] has as its target T2, recombinant human DEC-205 (Sino …). The experiment can be described thus: ELISA titration on coated recombinant human DEC-205 (FIG. 4B). How it is done:
as §1

The target in experiment [6] is T5, recombinant mouse CD11c (R&D Systems) (mouse, UniProt Q9QXH4 20-1116).
T5 construct: extracellular domain; Bought protein; also called recombinant CD11c
T5 sequence (looked up): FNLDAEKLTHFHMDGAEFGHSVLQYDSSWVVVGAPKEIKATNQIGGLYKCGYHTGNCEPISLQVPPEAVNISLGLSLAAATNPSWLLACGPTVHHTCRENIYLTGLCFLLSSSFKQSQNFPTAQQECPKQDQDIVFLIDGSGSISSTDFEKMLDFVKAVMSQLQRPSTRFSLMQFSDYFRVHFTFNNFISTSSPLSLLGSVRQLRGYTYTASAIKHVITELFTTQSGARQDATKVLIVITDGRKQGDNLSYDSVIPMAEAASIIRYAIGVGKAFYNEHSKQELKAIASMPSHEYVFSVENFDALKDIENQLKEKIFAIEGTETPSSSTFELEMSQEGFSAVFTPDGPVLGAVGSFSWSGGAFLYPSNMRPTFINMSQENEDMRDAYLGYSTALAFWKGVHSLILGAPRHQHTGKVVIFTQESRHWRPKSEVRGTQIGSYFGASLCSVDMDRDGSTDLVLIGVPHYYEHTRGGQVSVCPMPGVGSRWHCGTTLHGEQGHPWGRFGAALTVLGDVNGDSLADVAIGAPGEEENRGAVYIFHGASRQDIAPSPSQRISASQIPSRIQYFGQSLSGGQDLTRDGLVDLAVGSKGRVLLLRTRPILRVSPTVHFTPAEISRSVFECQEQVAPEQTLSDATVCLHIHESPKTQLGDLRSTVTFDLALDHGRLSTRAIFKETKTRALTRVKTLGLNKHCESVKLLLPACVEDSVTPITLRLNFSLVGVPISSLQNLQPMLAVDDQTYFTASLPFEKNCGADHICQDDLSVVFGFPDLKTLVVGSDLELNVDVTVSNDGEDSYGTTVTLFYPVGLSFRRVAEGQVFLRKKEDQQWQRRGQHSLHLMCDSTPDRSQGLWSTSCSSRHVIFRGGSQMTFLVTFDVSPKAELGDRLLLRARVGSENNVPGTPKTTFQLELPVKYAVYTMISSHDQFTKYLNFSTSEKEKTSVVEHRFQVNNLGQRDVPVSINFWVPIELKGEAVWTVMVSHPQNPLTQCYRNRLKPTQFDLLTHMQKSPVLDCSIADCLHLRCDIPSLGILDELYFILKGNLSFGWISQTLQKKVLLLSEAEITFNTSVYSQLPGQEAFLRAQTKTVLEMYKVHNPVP
Briefly: ELISA titration on coated recombinant mouse CD11c (FIG. 4B). How it is done: as §1

T2 sequence (O60449 28-1666): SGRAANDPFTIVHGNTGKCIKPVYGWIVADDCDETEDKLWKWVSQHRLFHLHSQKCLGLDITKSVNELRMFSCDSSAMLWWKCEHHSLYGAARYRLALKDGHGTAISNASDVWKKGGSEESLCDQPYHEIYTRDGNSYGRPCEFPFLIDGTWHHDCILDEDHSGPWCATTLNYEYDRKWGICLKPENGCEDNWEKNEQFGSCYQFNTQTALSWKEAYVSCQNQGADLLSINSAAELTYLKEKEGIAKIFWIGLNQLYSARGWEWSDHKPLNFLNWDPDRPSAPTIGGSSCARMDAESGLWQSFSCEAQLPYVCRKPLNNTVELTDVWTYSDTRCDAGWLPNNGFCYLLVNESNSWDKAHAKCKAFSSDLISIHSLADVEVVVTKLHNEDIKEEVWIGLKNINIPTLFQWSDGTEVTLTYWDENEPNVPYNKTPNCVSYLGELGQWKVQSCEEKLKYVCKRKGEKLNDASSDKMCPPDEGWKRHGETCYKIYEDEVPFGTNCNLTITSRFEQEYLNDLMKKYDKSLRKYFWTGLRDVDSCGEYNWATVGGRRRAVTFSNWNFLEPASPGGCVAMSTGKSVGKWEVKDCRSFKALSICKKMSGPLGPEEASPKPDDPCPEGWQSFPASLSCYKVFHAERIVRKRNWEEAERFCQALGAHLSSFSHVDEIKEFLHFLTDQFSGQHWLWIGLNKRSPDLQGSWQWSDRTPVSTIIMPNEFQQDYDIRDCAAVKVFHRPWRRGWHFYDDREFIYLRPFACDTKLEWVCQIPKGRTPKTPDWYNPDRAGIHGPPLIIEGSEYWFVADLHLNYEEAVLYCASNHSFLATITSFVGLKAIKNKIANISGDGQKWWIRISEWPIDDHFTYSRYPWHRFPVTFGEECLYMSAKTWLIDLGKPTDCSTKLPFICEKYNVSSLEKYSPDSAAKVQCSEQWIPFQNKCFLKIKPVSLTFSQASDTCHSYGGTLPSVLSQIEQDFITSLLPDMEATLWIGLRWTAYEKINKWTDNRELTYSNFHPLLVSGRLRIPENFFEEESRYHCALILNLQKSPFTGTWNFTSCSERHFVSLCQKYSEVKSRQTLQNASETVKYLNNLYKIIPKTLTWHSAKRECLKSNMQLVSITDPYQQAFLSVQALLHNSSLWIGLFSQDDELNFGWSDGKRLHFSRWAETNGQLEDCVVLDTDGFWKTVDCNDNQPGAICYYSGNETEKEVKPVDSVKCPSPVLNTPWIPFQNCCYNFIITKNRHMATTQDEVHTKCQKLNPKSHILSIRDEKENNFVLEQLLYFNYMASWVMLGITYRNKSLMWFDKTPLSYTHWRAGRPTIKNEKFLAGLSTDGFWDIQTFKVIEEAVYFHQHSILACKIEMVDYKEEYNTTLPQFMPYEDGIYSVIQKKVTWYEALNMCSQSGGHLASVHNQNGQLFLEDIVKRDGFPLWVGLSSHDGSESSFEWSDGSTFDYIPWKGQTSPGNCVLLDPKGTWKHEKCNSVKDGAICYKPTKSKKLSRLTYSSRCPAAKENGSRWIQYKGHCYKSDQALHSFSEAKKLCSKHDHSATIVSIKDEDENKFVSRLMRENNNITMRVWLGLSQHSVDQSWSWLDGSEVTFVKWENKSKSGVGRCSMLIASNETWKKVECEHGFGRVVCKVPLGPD
T3 sequence (P25942 21-193 limits assumed): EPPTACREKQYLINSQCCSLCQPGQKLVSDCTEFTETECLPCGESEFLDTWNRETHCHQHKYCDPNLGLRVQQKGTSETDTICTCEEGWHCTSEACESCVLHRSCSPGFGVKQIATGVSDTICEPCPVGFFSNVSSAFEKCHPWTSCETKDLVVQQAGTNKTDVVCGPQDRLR
T1 sequence (P25942 21-193 limits assumed): as above

B1: anti-CD40/DEC-205 bispecific Ab (2141/HD-109) (bispecific antibody)
VH 1: not shown
VL 1: DIQMTQSPSSVSASVGDRVTITCRASQGIYSWLAWYQQKPGKAPNLLIYTASTLQSGVPSRFSGSGSGTDFTLTISSLQPEDFATYYCQQANIFPLTFGGGTKVEIKRTVAAPSVFIFPPSDEQLKSGTASVVCLLNNFYPREAKVQWKVDNALQSGNSQESVTEQDSKDSTYSLSSTLTLSKADYEKHKVYACEVTHQGLSSPVTKSFNRGEC
VH 2: QVQLTESGPGLVAPSQSLSITCSVSGFSLTNYAINWVRQPPGKGLEWLGIIWTGGGTNYNSTLKSRLSISKDNSKSQVFLKMNSLQTDDTARYYCARVSHDYFYGSSPYYYGMDYWGQGTSVTVSS
VL 2: DIQMNQSPSSLSASLGDTITITCHASQNINVWLSWYQQKPGNIPKLLIYKVSNLHTGVPSRFSGSGSGTGFTLTISSLQPEDIATYYCQQGQSYPWTFGGGTKLEIK
notes: Whole human IgG1 bispecific of four chains; Knobs-into-holes: Y349C/T366S/L368A/Y407V on the anti-DC arm and S354C/T366W on the anti-CD40 arm; One arm is in CrossMab CH1-CL format
B1: the binding result in experiment [1], in experiment [2] and in experiment [3] was “binds” each time.

B2: CD40/DEC-205-V11 (bispecific antibody, human IgG1)
heavy 1: not shown
light 1: B1 VL 1
heavy 2: QVQLTESGPGLVAPSQSLSITCSVSGFSLTNYAINWVRQPPGKGLEWLGIIWTGGGTNYNSTLKSRLSISKDNSKSQVFLKMNSLQTDDTARYYCARVSHDYFYGSSPYYYGMDYWGQGTSVTVSSASVAAPSVFIFPPSDEQLKSGTASVVCLLNNFYPREAKVQWKVDNALQSGNSQESVTEQDSKDSTYSLSSTLTLSKADYEKHKVYACEVTHQGLSSPVTKSFNRGECDRSEPKSCDKTHTCPPCPAPELLGDDSVFLFPPKPKDTLMISRTPEVTCVVVDVSDEDGEVKFNWYVDGVEVHNAKTKPREEQYNSTYRVVSVLTVLHQDWLNGKEYKCKVSNKALPRPIEKTISKAKGQPREPQVCTLPPSREEMTKNQVSLSCAVKGFYPSDIAVEWESNGQPENNYKTTPPVLDSDGSFFLVSKLTVDKSRWQQGNVFSCSVMHEALHNHYTQKSLSLSPGKSAWSHPQFEK
light 2: DIQMNQSPSSLSASLGDTITITCHASQNINVWLSWYQQKPGNIPKLLIYKVSNLHTGVPSRFSGSGSGTGFTLTISSLQPEDIATYYCQQGQSYPWTFGGGTKLEIKSSASTKGPSVFPLAPSSKSTSGGTAALGCLVKDYFPEPVTVSWNSGALTSGVHTFPAVLQSSGLYSLSSVVTVPSSSLGTQTYICNVNHKPSNTKVDKKVEPKSC
notes: Human IgG1 Fc with V11 (G237D/P238D/H268D/P271G/A330R); also called IgG1-V11; copies: 1 + 1 + 1 + 1
With B2, in experiment [4], the binding result is “binds”.

B3: anti-DEC-205 (HD109) monospecific Ab (antibody, V domains shown)
VH: B1 VH 2
VL: B1 VL 2
With B3, the binding result in experiment [5] is “binds”.

B4: CD40/CD11c-V11 (bispecific antibody, human IgG1)
heavy 1: not shown
light 1: B1 VL 1
heavy 2: EVQLVEKGGGLVQPGKSLKLSCAASGFTFSEYWMNWVRQAPGKGLEWVGVIKYKYSNYATEYAESVKGRFTISRDDSKSSVYLQMNNLRAEDTAIYYCARTWENWYFDFWGQGTQVTVSSASVAAPSVFIFPPSDEQLKSGTASVVCLLNNFYPREAKVQWKVDNALQSGNSQESVTEQDSKDSTYSLSSTLTLSKADYEKHKVYACEVTHQGLSSPVTKSFNRGECDRSEPKSCDKTHTCPPCPAPELLGDDSVFLFPPKPKDTLMISRTPEVTCVVVDVSDEDGEVKFNWYVDGVEVHNAKTKPREEQYNSTYRVVSVLTVLHQDWLNGKEYKCKVSNKALPRPIEKTISKAKGQPREPQVCTLPPSREEMTKNQVSLSCAVKGFYPSDIAVEWESNGQPENNYKTTPPVLDSDGSFFLVSKLTVDKSRWQQGNVFSCSVMHEALHNHYTQKSLSLSPGKSAWSHPQFEK
light 2: DIQMTQSPSSLPASLGDRVTIHCQASQDISNYLTWYQQKPGKAPKLLIYETNKLADGVPSRFSGSGSGRDYSFTISSLESEDVGSYYCQHYYDYPRTFGPGTKLDLKSSASTKGPSVFPLAPSSKSTSGGTAALGCLVKDYFPEPVTVSWNSGALTSGVHTFPAVLQSSGLYSLSSVVTVPSSSLGTQTYICNVNHKPSNTKVDKKVEPKSC
notes: Human IgG1 Fc with V11 (G237D/P238D/H268D/P271G/A330R); also called anti-CD40/CD11c bsAb hIgG1-V11; IgG1-V11; copies: 1 + 1 + 1 + 1
Regarding B4, the binding result in experiment [4] is “binds”.

B5: anti-CD40 (2141) monospecific Ab (antibody, V domains shown)
VH: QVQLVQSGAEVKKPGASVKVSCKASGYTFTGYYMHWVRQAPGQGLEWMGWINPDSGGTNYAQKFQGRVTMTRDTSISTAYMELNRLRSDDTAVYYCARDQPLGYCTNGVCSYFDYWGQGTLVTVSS
VL: DIQMTQSPSSVSASVGDRVTITCRASQGIYSWLAWYQQKPGKAPNLLIYTASTLQSGVPSRFSGSGSGTDFTLTISSLQPEDFATYYCQQANIFPLTFGGGTKVEIKR
notes: 2141 variable regions cloned on human IgG1 / human kappa backbones; also called clone 21.4.1; CD40 mAb
As to B5, the binding result in experiment [5] and in experiment [6] was “no binding” each time.

The values above are taken from patent US20220403043A1 (YEDA RESEARCH AND DEVELOPMENT, published 2022).
